Like-named read-outs stand apart in the source and are kept apart here.
T1: CD45 D1-D4 (Homo sapiens, UniProt P08575)
T1 construct: extracellular domain of CD45 (UniProtKB—P08575, residue positions 225-573); TEV cleavage site (C); 10-His tag (C); made in house; host or cells: HEK293
T1 sequence (P08575 225-573): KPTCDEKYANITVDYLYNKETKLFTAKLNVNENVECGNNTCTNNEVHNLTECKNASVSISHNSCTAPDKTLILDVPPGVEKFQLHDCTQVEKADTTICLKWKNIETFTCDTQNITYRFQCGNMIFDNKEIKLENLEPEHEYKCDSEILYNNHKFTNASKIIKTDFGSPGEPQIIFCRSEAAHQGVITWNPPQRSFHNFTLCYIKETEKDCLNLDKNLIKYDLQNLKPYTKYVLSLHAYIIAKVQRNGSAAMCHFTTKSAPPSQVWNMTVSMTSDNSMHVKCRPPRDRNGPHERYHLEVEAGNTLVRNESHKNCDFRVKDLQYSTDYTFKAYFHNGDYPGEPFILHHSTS


Biological target: T1, CD45 D1-D4
Assay: Surface plasmon resonance (Biacore) affinity of Fabs
Assay type: binding
Conditions: 25° C.; for Ka: association constant, CD45 D1-D4 50 nM to 0.05 nM
Description: Surface plasmon resonance (SPR) experiments were carried out at 25° C. on a Biacore 3000 system using CM5 sensor chips (GE Healthcare Bio-Sciences AB, Uppsala, Sweden) and HBS-EP running buffer (10 mM HEPES, 150 mM NaCl, EDTA 2 mM and 0.005% (v/v) P20, pH 7.4). 4133 rabbit Fab and 6294 mouse Fab were captured using polyclonal goat F(ab)2 fragment anti-rabbit F(ab)2, (Jackson Labs product code #111-006-047) and polyclonal goat F(ab)2 fragment anti-mouse F(ab)2, (Jackson Labs product code #115-006-072), respectively. Covalent immobilization of the capturing antibody was achieved by standard amine coupling chemistry to a level of 1000-3000 response units (RU).
CD45 D1-D4 was titrated over the captured purified antibody from 50 nM to 0.05 nM. Each assay cycle consisted of first capturing the antibody Fab fragment using a 1-min injection at a flow rate of 10 μl/min, followed by an association phase consisting of a 3-min injection of CD45 D1-D4 at a flow rate of 30 μl/min. The subsequent dissociation phase was monitored for at least 3 min. After each cycle, the capture surface was regenerated at a flow rate of 10 μl/min with a 1-min injection of 40 mM HCl followed by a 30-sec injection of 5 mM NaOH. A blank flow-cell was used for reference subtraction and buffer-blank injections were included to subtract instrument noise and drift. Kinetic parameters were determined using BIAevaluation software (version 4.1.1).

Molecule | Kd (SPR, read-out: affinity) | Ka (captured Fab) | Dissociation rate constant koff (captured Fab) | Kd (affinity constant, captured Fab, read-out: KD)
6294 Fab: Fab fragment of mouse anti-CD45 antibody 6294 (antibody, V domains shown) VH: EVQLVESGAELARPGASVKMSCKASGYTFTSYTMHWVKQRPGQGLEWIGYINPSSGYTEYNQKFKDKTTLTADKSSSTAYLQLSSLTSEDSAVYYCARVGDGFYPSWLAYWGQGTLVTVSS VL: DIQMTQSPKFLLVSAGDRVTITCKASQSVRNDVAWYQQKPGQSPKLLIFYASKRYTGVPDRFTGSGYGTDFTFTISTVQAEDLAVYFCQQDYSSPTTFGGGTKLEIK | 0.085 nM | 2.6e+06 M⁻¹ s⁻¹ | 0.00022 s⁻¹ | 
4133 Fab: Fab fragment of rabbit anti-CD45 antibody 4133 (antibody) heavy: QEQLVESGGGLVQPEGSLTLTCTASGFSFSGNYYMCWVRQAPGKGLEWIGCLYTGSSGSTYYASWAKGRFTISKTSSTTVTLQMTSLTAADTATYFCARDLGYEIDGYGGLWGQGTLVTVSSGQPKAPSVFPLAPCCGDTPSSTVTLGCLVKGYLPEPVTVTWNSGTLTNGVRTFPSVRQSSGLYSLSSVVSVTSSSQPVTCNVAHPATNTKVDKTVAPSTCSKP light: AQVLTQTPSPVSAVVGGTVSISCQASQSVYNNNNLSWYQQKPGQPPKLLIYDASKLASGVPSRFKGSGSGTQFTLTISGVQCDDAATYYCLGGYYSSGWYFAFGGGTKVVVKRTPVAPTVLIFPPAADQVATGTVTIVCVANKYFPDVTVTWEVDGTTQTTGIENSKTPQNSADCTYNLSSTLTLTSTQYNSHKEYTCKVTQGTTSVVQSFNRGDC | 61 nM | 570000 M⁻¹ s⁻¹ | 0.035 s⁻¹ | 61 nM

From US20230374148A1, “BINDING MOLECULES THAT MULTIMERISE CD45” (UCB BIOPHARMA SRL, priority 2020, published 2023)
